Where two headings read alike, the source gives them in different places. One block for each molecule: values may come before it.
Experiments:
[1] = molecular target: OG488-EGR-labeled fXa-R165A; assay: fluorescence polarisation
[2] = molecular target: OG488-EGR-labeled E2-fXa; assay: fluorescence polarisation
[3] = molecular target: OG488-EGR-labeled wild-type factor Xa; assay: fluorescence polarisation
[4] = molecular target: OG488-EGR-labeled fXa-des-Gla; assay: fluorescence polarisation
[5] = molecular target: OG488-EGR-labeled fXa-R165A; assay: fluorescence polarisation; remark: listed apart in the source
[6] = molecular target: T1, factor Va (Homo sapiens, UniProt P12259); assay: prothrombinase assay
T1 chain 1: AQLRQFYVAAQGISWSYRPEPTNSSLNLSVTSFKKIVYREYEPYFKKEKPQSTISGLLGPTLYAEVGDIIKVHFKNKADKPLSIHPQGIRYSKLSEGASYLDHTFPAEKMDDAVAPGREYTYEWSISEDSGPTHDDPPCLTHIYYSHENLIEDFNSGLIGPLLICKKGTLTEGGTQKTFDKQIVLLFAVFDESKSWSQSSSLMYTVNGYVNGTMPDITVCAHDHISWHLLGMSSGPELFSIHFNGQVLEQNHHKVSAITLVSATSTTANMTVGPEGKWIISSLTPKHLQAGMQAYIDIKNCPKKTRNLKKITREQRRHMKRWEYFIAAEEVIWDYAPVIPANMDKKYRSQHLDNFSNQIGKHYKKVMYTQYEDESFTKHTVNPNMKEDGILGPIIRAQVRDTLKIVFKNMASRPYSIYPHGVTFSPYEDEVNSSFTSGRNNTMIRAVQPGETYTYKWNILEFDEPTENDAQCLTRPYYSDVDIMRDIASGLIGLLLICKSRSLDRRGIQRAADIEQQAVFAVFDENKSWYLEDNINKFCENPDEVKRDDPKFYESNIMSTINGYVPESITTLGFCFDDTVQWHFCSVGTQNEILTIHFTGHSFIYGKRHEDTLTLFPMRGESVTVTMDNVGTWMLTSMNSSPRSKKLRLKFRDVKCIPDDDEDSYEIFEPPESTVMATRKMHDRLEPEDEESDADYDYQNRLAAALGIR
T1 chain 2: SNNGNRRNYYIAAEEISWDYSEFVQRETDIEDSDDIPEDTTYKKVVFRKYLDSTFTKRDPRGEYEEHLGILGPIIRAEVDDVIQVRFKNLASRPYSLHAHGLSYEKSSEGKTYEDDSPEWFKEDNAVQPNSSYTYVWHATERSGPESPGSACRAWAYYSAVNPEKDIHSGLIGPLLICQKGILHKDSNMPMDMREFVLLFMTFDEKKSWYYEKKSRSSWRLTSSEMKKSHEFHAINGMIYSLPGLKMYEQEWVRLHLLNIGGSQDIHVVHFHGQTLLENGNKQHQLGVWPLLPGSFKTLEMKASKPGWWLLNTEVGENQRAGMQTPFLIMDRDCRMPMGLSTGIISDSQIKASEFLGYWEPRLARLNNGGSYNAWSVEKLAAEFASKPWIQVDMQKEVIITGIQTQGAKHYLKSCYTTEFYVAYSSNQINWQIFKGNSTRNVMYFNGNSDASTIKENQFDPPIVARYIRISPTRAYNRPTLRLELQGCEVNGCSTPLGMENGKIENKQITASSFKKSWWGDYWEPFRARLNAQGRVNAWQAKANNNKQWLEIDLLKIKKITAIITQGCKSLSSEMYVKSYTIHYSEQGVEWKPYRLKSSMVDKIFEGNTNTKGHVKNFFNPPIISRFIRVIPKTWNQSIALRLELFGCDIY

Kd [1]: 10.3 nM
Kd [2]: 62 nM
Kd [3]: 1.5 nM
Kd [4]: 58 nM
Kd [5]: 10.5 nM
Molecule: human plasma factor Va (from UniProt P12259 29-737; P12259 1574-2224) (natural protein)

Kd [6]: 0.5 nM
B1: factor Xa (protein)
chain: IVGGQECKDGECPWQALLINEENEGFCGGTILSEFYILTAAHCLYQAKRFKVRVGDRNTEQEEGGEAVHEVEVVIKHNRFTKETYDFDIAVLRLKTPITFRMNVAPACLPERDWAESTLMTQKTGIVSGFGRTHEKGRQSTRLKMLEVPYVDRNSCKLSSSFIITQNMFCAGYDTKQEDACQGDSGGPHVTRFKDTYFVTGIVSWGEGCARKGKYGIYTKVTAFLKWIDRSMKTRGLPKAKSHAPEVITSSPLK
modifications: PCPS vesicles

Reference: article PMC2693874 (2009)
